Reference: publication PMC314469, “Protein Interaction Networks by Proteome Peptide Scanning” (PLoS Biology, 2004)

T1: amphyphisin SH3 (AMPH_HUMAN), P49418
T1 chain: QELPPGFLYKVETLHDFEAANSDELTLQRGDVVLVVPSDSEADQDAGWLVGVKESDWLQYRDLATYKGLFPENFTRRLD


What was measured:
[1] = molecular target: T1, amphyphisin SH3 (AMPH_HUMAN), P49418; test: SPOT array
[2] = molecular target: endophilin SH3 (SH3G2_HUMAN), Q99962; test: SPOT array

| Binder | normalised SPOT signal, Boehringer light units (BLU); mean over the file's lines of this peptide [1] | normalised SPOT signal, Boehringer light units (BLU); mean over the file's lines of this peptide [2] |
| --- | --- | --- |
| IRQILSRPERLLFI [Q9C000 395-408] | 973 | 398 |
| ILSPPRRPRHSQPA [Q8WYU9 180-193] | 344 | 797 |
| IPQRPSRPARRPLG [Q9HBL3 242-255] | 27600 | 84800 |
| IQEALKRPIKQKRK [Q9Y635 106-119] | 92.2 | 89.8 |
| ISMKFLRPLRVLSQ [Q01118 1027-1040] | 13100 | 925 |
| ISSVPRRPARALHP [Q9HBK4 869-882] | 12900 | 5010 |
| IMFDLRRPPQNHTY [Q9HCC8 352-365] | 62.4 | 230 |
| IRGLLARPAKLQVQ [P07202 539-552] | 97.3 | 54.1 |
| ILRPPRRPRKPKTL [Q9NYS8 1488-1501] | 7790 | 1310 |
| ILLSISRPYKTKPT [Q9Y5J0 40-53] | 173 | 130 |
| ISHRLRRPGAPPST [Q9H669 126-139] | 9.8 | 120 |
| IQVAFRRPETPSSG [Q9H8D9 51-64] | 55.7 | 5.6 |
| ISFHPKRPVHILLH [Q96T13 405-418] | 27.3 | 173 |
| ISFHPKRPMHILLH [Q96SZ9 375-388] | 56.1 | 524 |
| IPERPLRPPSEKRA [Q9Y2W3 72-86] | 11100 | 7610 |
| ISRRLRRPPHVGRA [O00155 224-237] | 56.5 | 5.9 |
| IQAPPPRPPKNQGL [Q9BYB6 252-266] | 861 | 2290 |
| ISELIKRPNVSPKV [Q9NX58 81-94] | 30.6 | 14.7 |

Now from value to binder:

| normalised SPOT signal, Boehringer light units (BLU); mean over the file's lines of this peptide [1] | normalised SPOT signal, Boehringer light units (BLU); mean over the file's lines of this peptide [2] | Binder |
| --- | --- | --- |
| 26.3 | 0 | IRSALKRPVEQPLG [P48165 231-244] |
| 28.5 | 29.8 | IQFVIKRPELLTEG [O95444 633-646] |
| 30.9 | 23.1 | ILPDFKRPASFGTY [O43844 486-499] |
| 186 | 1100 | IRLSPNRPPLGGSS [P98161 2462-2476] |
| 4960 | 19900 | IRLPPARPPTPGRS [AAM34265 504-518] |
| 1320 | 366 | ILPSLSRPARSDQA [O43149 568-581] |
| 1350 | 492 | ALSRLARPQRLPVA [P80365 68-81] |
| 71.7 | 109 | IQEALKRPMKQKRK [Q92926 129-142] |
| 38.3 | 39.9 | IRFKLKRPLEDGGR [O95444 196-209] |
| 727 | 112 | ALSLPEKPPRGEQG [O94819 607-621] |
| 48 | 353 | ALRWLRRPEDRAFS [Q13472 9-22] |
| 59 | 32.8 | IPREPGRPGKGNYW [Q12950 67-80] |
| 42.4 | 130 | ISFIIKRPFLEPKK [P78347 180-193] |
